For this test, the target named is SMV helper component protease tagged with the Flag epitope at the N-terminus (soybean mosaic virus strain G7H). As to the kind of experiment: affinity purification with mass spectrometry; crude extract of upper symptomatic soybean leaves at 15 dpi (20 mM Tris-HCl pH 7.5, 300 mM NaCl, 5 mM MgCl2, 5 mM dithiothreitol, 0.5% Triton X-100); anti-Flag antibody-conjugated agarose beads 16 h at 4 °C, five washes; 10% SDS-PAGE, Coomassie blue, dominant bands excised and identified by LC-MS/MS; Flag-tagged GFP as negative control.

The results in this text go back to paper PMC4772626.

Where “and” joins values, the source holds several entries; their conditions need not be identical. Equal entries are not always repeated.

Consider “SMV helper component protease tagged with the Flag epitope at the N-terminus (natural protein)”, for which the stoichiometry N (as a rule, a count of units in the complex or per binding partner) was 4 and 2.
